Read-outs that look alike come from different tables or passages of the source.

Common to all, as to settings: modification not given
The target in assay [1] is T1, human leukocyte cathepsin G (hCG) (human), P08311.
T1 chain: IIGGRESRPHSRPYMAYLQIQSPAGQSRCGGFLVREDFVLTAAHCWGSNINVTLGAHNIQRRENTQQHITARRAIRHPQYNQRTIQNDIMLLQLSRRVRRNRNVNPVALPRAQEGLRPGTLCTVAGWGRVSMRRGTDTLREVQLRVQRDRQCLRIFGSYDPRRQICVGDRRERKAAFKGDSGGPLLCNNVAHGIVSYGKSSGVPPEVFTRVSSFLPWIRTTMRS
Nature of the assay: other enzyme inhibition.

The target of assay [2] is T2, human leukocyte elastase (hLE) (human), P08246.
T2 chain: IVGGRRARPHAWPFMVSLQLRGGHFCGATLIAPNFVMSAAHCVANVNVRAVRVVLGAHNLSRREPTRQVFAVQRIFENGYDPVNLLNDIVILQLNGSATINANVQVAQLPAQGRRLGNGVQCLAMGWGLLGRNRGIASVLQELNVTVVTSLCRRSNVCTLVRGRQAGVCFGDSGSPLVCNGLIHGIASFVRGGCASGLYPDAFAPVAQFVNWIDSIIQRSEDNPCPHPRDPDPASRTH

For assay [3], the target named is T2, human leukocyte elastase (hLE) (human), ….
Assay [4] has the same target.
The target is the same in assay [5].
Assay [6] shares this target.
Assay [7] has the same target.
Assay [8] shares this target.
Assay [9] has the same target.
Assay [10] has the same target.
For assay [11] the target is unchanged.
Assay [12] shares this target.
Assay [13] has the same target.
The target is the same in assay [14].
Assay [15] shares this target. Nature of the assay: other enzyme inhibition.

For orientation: Ki means a measure of affinity in units of concentration, obtained from inhibition or displacement. A lower Ki goes with higher affinity. On to ATKRQDNEILIFWSKDIGYSFTVGGSEIL [CRP55-83 (peptide 17)], for which the Ki in assay [1] came to 5.5 µM; in assay [2] it was 7.3 µM.

On to EILIFWSVDI [peptide 26], for which the Ki in [3] is 2 µM.

Consider ILIFWSKDIGYSFT [CRP63-76 (peptide 11)], for which the Ki was 15 µM in [1] and 4.5 µM in assay [4].

In assay [1], WSKDIGYSFTVGGSE [CRP67-81 (peptide 7)] came in with a Ki of more than 200 µM.

For EILIFWSKEIGYSFT [peptide 23], the Ki in [1] is 0.85 µM; in assay [5] it was 0.55 µM.

With EILIFWSKDI [CRP62-71 (peptide 14)], the Ki is 6 µM in assay [1] and 6.7 µM in assay [6].

Take EILIFWSKAIGYSFT [peptide 22]: the Ki in assay [1] worked out at 5.5 µM; in [7], 3 µM.

As for EILIFWSKDIGY [CRP62-73 (peptide 13)], the Ki in assay [1] turned out to be 4 µM; in assay [8], 1.1 µM.

In the case of GYSFTVGGSEILFEV [CRP72-86 (peptide 8)], in assay [1], the Ki was more than 200 µM.

Turning to TFSYGIDKSWFILIE [peptide 24], the Ki in assay [9] was determined as 10 µM.

Turning to DILIFWSKDIGYSFT [peptide 18], the Ki worked out at 2.6 µM in assay [1] and 2.2 µM in assay [10].

For the molecule ILFEVPEVTVAPVHI [CRP82-96 (peptide 10)], the Ki was 150 µM in assay [1] and 55 µM in assay [11].

For the molecule EILIFWSKDIGYSFT [CRP62-76 (peptide 6)], the Ki in assay [1] is 0.25 µM; in assay [12], 0.18 µM.

With VGGSEILFEVPEVTV [CRP77-91 (peptide 9)], in assay [1], the Ki was more than 200 µM.

The molecule EILIFWSADI [peptide 25] registered a Ki in assay [13] of 3 µM.

In the case of KRQDNEILIFWSKDI [CRP57-71 (peptide 5)], the results for the Ki in assay [1] and in [14] were 180 µM and 85 µM, respectively.

EILIFWPKDIGYSFT [peptide 19] had a Ki in [1] of 30 µM.

In assay [1], FSYATKRQDNEILIF [CRP52-66 (peptide 4)] showed a Ki of more than 200 µM.

The molecule LHFYTELSSTRGYSI [CRP37-51 (peptide 1)] returned a Ki in assay [15] of more than 200 µM.
